Reference: the supplement of paper PMC10065799, “High-throughput profiling of sequence recognition by tyrosine kinases and SH2 domains using bacterial peptide display” (eLife, 2023)

How the values were obtained:
c-Src SH2 = assay: SH2 binding enrichment of the phosphorylated peptide, bacterial display (enrichment ratio); higher = better substrate or ligand; peptides without Tyr show the background
SHP2-C SH2 = assay: as above
Grb2 SH2 = Grb2 SH2 (UniProt P62993); assay: as above
EPHB2 = EPHB2 (UniProt P29323); assay: phosphorylation enrichment, bacterial display (enrichment ratio); higher = better substrate or ligand; peptides without Tyr show the background
c-Abl (mouse) = assay: as above
AncSZ = assay: as above
c-Src = assay: as above
FGFR1 = FGFR1 (UniProt P11362); assay: as above
EPHB1 = EPHB1 (UniProt P54762); assay: as above
Fes = Fes (UniProt P07332); assay: as above
MERTK = MERTK (UniProt Q12866); assay: as above
Fyn = Fyn (UniProt P06241); assay: as above
Fer (mouse) = assay: as above
Hck = Hck (UniProt P08631); assay: as above
FGFR3 = FGFR3 (UniProt P22607); assay: as above
Jak2 = Jak2 (UniProt O60674); assay: as above
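Wherever SH2 binding enrichment of the phosphorylated peptide, bacterial display is given: peptide library displayed on the E. coli surface as eCPX fusions, selected cells deep-sequenced, score is each peptide's frequency after selection divided by its frequency in the input.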
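Wherever phosphorylation enrichment, bacterial display is given: 11-residue human phosphosite peptides and single-mutation variants displayed on the E. coli surface, counted by deep sequencing, each peptide's frequency after selection divided by its frequency in the unselected input library; frequency after pTyr selection over input frequency; kinase dosed for 20-30% of maximal phosphorylation in three min.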

Chain of Fes (P07332 whole entry, looked up): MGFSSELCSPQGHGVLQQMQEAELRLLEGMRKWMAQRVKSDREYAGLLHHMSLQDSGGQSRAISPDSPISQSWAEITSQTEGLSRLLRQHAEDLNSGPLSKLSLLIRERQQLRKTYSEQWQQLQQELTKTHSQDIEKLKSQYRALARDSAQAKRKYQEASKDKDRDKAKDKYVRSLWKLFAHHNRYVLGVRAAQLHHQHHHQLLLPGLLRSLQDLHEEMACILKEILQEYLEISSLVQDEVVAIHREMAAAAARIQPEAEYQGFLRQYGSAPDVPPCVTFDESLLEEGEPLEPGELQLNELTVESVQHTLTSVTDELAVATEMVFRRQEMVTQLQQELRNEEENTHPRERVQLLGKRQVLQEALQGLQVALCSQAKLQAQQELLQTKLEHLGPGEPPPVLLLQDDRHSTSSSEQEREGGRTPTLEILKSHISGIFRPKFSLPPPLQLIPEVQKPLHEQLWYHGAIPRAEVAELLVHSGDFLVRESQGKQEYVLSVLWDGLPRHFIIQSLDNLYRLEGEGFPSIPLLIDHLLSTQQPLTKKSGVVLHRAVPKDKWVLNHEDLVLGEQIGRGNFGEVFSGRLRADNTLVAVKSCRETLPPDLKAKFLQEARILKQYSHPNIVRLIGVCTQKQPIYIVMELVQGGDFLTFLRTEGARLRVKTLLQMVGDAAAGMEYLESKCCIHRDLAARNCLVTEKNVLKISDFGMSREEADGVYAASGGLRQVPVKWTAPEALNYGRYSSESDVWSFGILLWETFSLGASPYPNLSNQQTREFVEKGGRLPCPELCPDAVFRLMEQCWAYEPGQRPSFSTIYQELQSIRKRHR
Chain of Hck (P08631 whole entry, looked up): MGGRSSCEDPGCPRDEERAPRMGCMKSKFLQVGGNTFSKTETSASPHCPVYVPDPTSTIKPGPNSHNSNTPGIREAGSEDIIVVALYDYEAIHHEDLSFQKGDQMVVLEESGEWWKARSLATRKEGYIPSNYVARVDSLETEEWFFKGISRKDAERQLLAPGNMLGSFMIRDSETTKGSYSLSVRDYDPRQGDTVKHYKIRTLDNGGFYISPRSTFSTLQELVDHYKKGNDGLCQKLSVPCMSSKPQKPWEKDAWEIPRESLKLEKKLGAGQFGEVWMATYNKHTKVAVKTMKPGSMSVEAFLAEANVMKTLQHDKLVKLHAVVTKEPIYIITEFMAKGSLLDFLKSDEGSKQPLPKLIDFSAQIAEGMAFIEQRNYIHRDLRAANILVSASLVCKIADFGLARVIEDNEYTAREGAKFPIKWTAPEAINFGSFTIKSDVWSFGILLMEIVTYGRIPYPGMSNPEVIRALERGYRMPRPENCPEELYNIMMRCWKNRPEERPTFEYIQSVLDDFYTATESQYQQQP
Chain of Fyn (P06241 whole entry, looked up): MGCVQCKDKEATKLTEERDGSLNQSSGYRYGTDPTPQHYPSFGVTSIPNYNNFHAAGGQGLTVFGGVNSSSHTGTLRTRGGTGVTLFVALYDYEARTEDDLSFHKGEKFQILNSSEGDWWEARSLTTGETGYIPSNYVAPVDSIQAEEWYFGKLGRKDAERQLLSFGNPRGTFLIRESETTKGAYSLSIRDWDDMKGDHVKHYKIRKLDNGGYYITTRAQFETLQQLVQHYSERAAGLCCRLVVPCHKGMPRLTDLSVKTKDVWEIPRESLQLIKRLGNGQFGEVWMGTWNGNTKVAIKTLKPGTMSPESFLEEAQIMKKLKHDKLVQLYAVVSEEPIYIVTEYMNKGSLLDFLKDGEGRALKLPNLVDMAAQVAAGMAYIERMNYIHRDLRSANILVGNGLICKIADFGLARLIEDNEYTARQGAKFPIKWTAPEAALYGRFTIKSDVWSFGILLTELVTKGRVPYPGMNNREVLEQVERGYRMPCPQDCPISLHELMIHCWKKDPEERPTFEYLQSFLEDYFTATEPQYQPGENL
Chain of Jak2 (O60674 whole entry, looked up, the tested form may be a part): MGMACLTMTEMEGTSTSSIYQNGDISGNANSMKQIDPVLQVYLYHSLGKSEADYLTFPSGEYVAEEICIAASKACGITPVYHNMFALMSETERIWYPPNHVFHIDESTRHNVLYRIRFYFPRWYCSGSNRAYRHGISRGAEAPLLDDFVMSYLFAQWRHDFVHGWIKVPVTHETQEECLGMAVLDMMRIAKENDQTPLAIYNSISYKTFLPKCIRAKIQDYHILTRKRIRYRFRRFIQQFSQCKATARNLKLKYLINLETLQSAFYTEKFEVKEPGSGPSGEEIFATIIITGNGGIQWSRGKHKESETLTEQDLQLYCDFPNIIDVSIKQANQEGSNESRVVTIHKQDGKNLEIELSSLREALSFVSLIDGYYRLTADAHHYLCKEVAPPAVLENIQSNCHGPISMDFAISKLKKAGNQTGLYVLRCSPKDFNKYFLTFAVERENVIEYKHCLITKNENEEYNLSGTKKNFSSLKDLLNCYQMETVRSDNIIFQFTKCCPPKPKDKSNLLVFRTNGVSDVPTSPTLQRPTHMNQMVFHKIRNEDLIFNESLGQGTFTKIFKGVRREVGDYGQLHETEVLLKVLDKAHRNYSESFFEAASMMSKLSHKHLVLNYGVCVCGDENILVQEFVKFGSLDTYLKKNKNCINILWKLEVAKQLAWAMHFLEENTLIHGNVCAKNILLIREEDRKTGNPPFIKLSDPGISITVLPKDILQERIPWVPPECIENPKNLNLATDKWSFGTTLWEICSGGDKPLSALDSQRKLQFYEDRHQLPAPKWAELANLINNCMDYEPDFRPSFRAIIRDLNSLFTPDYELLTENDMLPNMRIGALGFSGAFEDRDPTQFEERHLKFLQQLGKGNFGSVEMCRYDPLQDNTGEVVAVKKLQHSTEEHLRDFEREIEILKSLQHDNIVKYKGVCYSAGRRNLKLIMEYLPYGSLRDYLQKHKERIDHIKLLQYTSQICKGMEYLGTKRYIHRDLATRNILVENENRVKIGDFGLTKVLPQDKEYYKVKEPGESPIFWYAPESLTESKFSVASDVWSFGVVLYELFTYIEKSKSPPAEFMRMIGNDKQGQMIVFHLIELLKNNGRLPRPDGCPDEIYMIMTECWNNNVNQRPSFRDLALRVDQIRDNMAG
Chain of EPHB1 (P54762 whole entry, looked up): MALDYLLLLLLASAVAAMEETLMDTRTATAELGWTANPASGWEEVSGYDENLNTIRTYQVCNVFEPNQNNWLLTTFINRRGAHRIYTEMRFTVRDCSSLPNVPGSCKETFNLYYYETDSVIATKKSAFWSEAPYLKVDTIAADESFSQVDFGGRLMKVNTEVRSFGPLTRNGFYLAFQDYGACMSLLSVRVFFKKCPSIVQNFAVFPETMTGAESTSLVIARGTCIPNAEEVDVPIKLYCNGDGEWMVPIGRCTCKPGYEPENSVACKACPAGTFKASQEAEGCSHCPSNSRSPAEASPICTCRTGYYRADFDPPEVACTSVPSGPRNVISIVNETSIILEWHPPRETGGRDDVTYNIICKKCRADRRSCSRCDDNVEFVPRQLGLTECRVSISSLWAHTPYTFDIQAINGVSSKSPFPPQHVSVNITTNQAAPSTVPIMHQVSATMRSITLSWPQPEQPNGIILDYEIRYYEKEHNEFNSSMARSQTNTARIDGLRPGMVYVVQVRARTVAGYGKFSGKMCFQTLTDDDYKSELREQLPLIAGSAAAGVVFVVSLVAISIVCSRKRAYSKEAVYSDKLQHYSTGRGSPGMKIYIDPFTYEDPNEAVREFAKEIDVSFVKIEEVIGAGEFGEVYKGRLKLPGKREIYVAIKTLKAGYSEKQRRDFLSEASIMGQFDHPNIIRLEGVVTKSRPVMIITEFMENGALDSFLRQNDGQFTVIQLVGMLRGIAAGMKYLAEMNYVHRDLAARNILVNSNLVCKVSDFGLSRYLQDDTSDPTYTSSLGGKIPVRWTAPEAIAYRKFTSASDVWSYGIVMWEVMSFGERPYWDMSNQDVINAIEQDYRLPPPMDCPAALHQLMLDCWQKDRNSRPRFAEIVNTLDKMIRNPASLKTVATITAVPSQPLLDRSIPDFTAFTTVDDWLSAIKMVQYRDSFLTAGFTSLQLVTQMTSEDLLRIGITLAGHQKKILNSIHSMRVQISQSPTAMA
Chain of FGFR1 (P11362 whole entry, looked up): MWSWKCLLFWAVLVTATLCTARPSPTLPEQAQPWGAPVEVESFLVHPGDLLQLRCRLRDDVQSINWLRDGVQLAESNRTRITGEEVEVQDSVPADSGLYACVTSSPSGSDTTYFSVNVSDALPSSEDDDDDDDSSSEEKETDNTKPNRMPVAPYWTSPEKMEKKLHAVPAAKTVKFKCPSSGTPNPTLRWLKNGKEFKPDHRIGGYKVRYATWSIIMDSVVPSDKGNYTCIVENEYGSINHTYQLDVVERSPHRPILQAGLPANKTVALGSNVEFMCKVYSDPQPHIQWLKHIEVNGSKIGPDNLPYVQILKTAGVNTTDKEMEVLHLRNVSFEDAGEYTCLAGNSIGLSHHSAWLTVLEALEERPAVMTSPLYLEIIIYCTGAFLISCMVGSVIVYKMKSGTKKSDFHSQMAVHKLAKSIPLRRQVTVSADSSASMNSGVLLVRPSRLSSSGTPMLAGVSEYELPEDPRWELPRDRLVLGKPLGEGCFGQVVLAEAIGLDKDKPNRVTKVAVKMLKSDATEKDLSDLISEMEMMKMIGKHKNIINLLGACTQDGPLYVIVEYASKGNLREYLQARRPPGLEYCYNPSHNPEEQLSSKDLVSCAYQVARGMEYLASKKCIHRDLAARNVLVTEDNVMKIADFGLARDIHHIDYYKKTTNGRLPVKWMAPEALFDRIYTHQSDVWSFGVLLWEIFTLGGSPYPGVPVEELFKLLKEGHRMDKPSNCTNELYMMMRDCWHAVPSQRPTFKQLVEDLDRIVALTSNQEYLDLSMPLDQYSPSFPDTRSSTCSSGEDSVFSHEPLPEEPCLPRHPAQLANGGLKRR

Row | Sequence | SH2 binding enrichment (c-Src SH2) | SH2 binding enrichment (SHP2-C SH2) | SH2 binding enrichment (Grb2 SH2) | phosphorylation enrichment (EPHB2) | phosphorylation enrichment (c-Abl (mouse)) | phosphorylation enrichment (AncSZ) | phosphorylation enrichment (c-Src) | phosphorylation enrichment (FGFR1) | phosphorylation enrichment (EPHB1) | phosphorylation enrichment (Fes) | phosphorylation enrichment (MERTK) | phosphorylation enrichment (Fyn) | phosphorylation enrichment (Fer (mouse)) | phosphorylation enrichment (Hck) | phosphorylation enrichment (FGFR3) | phosphorylation enrichment (Jak2)
1 | FGMQLYQKFMH [GRB14_Y347_N349K_YF] | 1.08 | 1.02 | 1.23 | 0.8 | 0.773 | 0.863 | 2.26 | 0.454 | 1.39 | 1 | 2.11 | 1.56 | 1.92 | 2.16 | 0.784 | 0.94
2 | KTGDYYDLYGG [PTPN11_Y63_N58K] | 0.916 | 0.665 | 0.858 | 7.72 | 0.813 | 1.86 | 3.86 | 16.8 | 9.65 | 1.09 | 3.04 | 4.48 | 0.829 | 5.07 | 13.8 | 2.26
3 | DLDTDYGSGYP [RNASEH2A_Y206] | 0.439 | 0.565 | 0.816 | 0.648 | 1.21 | 1.36 | 0.652 | 0.689 | 0.691 | 1.47 | 0.554 | 0.852 | 0.682 | 0.589 | 0.879 | 1.14
4 | TVLWQYTGTRP [UGT1A1_Y337_R336Q] | 0.455 | 0.793 | 1.01 | 0.43 | 0.436 | 0.903 | 0.22 | 0.366 | 0.539 | 1.04 | 0.345 | 0.398 | 0.419 | 0.499 | 0.645 | 1.01
5 | FPPTHYIRRVP [SLC4A11_Y820_YF] | 0.374 | 0.746 | 0.644 | 0.53 | 0.71 | 0.953 | 0.475 | 0.437 | 0.529 | 0.87 | 0.522 | 0.473 | 0.747 | 0.965 | 0.468 | 0.755
6 | GREAEYSDKHG [EPHB4_Y574] | 0.402 | 0.618 | 0.809 | 0.44 | 0.571 | 0.64 | 0.405 | 0.388 | 0.392 | 0.821 | 0.39 | 0.773 | 0.472 | 0.354 | 0.547 | 0.582
7 | LMIEEYLTKEP [BAG3_Y457_L462P] | 0.552 | 0.953 | 0.743 | 0.975 | 2.45 | 2.05 | 1.49 | 1.2 | 1.15 | 2.51 | 1.12 | 0.6 | 0.745 | 1.5 | 1.88 | 2.78
8 | RLNWIYFKDQT [RS1_Y165_YF] | 0.842 | 1.01 | 1.01 | 0.918 | 1.35 | 2.98 | 0.855 | 1.17 | 1.08 | 2.3 | 0.49 | 0.757 | 0.774 | 1.02 | 1.35 | 2.15
9 | EQFELHCEMGS [CBL_Y371_Y371H_YF] | 0.606 | 0.685 | 0.707 | 0.623 | 0.995 | 1.17 | 0.528 | 0.496 | 0.71 | 1.49 | 0.526 | 0.523 | 0.577 | 0.58 | 0.802 | 1.25
10 | SCTFTYLLGDR [ETHE1_Y38] | 0.588 | 0.729 | 0.83 | 0.56 | 0.604 | 1.11 | 0.515 | 0.446 | 0.491 | 1.2 | 0.409 | 0.491 | 0.426 | 0.404 | 0.575 | 0.921
11 | NKYTTYLPWLP [C9orf24_Y126_R129W] | 0.739 | 1.01 | 1.14 | 12.8 | 1.94 | 1.08 | 4.72 | 2.77 | 6.9 | 0.944 | 3.37 | 6.75 | 9.65 | 8.09 | 2.25 | 2.34
12 | ADYYDYGRGLS [KHDRBS3_Y304_H306R] | 0.564 | 6.25 | 0.698 | 17.4 | 0.967 | 3.83 | 4.1 | 17.9 | 15.9 | 0.831 | 3.88 | 6.79 | 1.22 | 7.62 | 15.5 | 6.26

Continued, in another order:

Row | SH2 binding enrichment (c-Src SH2) | SH2 binding enrichment (SHP2-C SH2) | SH2 binding enrichment (Grb2 SH2) | Sequence | phosphorylation enrichment (EPHB2) | phosphorylation enrichment (c-Abl (mouse)) | phosphorylation enrichment (AncSZ) | phosphorylation enrichment (c-Src) | phosphorylation enrichment (FGFR1) | phosphorylation enrichment (EPHB1) | phosphorylation enrichment (Fes) | phosphorylation enrichment (MERTK) | phosphorylation enrichment (Fyn) | phosphorylation enrichment (Fer (mouse)) | phosphorylation enrichment (Hck) | phosphorylation enrichment (FGFR3) | phosphorylation enrichment (Jak2)
13 | 0.675 | 0.811 | 1.23 | VPDTNYTSDEE [STK33_Y439_A437T] | 0.658 | 0.748 | 1.23 | 0.465 | 0.606 | 0.562 | 1.19 | 0.437 | 0.56 | 0.511 | 0.552 | 0.708 | 1.07
14 | 1.32 | 1.22 | 1.5 | WCKPLYFSCAV [MMS22L_Y28_P27L] | 0.598 | 0.821 | 1.26 | 1.18 | 1.14 | 0.737 | 1.21 | 0.907 | 0.533 | 0.541 | 0.607 | 1.1 | 1.57
15 | 0.711 | 0.7 | 0.979 | VVTFSYKPPGN [RBL2_Y544] | 0.476 | 0.673 | 0.634 | 0.423 | 0.592 | 0.455 | 0.696 | 0.431 | 0.42 | 0.367 | 0.429 | 0.519 | 0.911
16 | 0.819 | 0.65 | 1.11 | RGDSAYHSQRH [ERBB3_Y1132] | 0.469 | 0.453 | 0.51 | 0.462 | 0.401 | 0.534 | 0.731 | 0.357 | 0.455 | 0.569 | 0.305 | 0.427 | 0.288
17 | 4.32 | 0.744 | 1.12 | AAAAMYTFLPD [MYORG_Y36] | 1.46 | 1 | 1.26 | 4.45 | 13.5 | 2.82 | 1.12 | 10.9 | 1.61 | 1 | 4.23 | 12 | 1.31
18 | 0.491 | 0.596 | 0.758 | EQMASYFGHSV [ITGA2B_Y319] | 0.488 | 0.573 | 0.662 | 0.553 | 0.576 | 0.44 | 0.663 | 0.425 | 0.549 | 0.584 | 0.452 | 0.59 | 0.842
19 | 7.34 | 0.874 | 1.01 | TLNHQYDYTFH [CSNK1A1_Y292_D297H] | 0.873 | 0.512 | 0.998 | 1.16 | 2.69 | 0.772 | 0.753 | 1.11 | 0.536 | 1.4 | 0.596 | 1.38 | 0.654
20 | 1.07 | 1.1 | 1.31 | PPAPRYHHSAV [LZTR1_Y119] | 0.44 | 0.677 | 0.655 | 0.384 | 0.38 | 0.432 | 1.26 | 0.351 | 0.457 | 0.587 | 0.717 | 0.79 | 0.781
21 | 0.456 | 0.639 | 0.771 | LWQSIYNLDAE [TNNT2_Y251_E254D] | 1.18 | 0.706 | 1.38 | 6.55 | 0.658 | 0.883 | 1.2 | 0.497 | 9.69 | 0.513 | 6.38 | 0.784 | 0.981
22 | 0.509 | 0.86 | 0.946 | PIPAAYNKFDQ [CDC73_Y290_R292K_YF] | 1.39 | 0.684 | 1.54 | 0.611 | 0.57 | 0.687 | 0.864 | 0.415 | 0.745 | 0.798 | 0.661 | 0.925 | 0.653
23 | 0.389 | 0.554 | 1.03 | KEDSVYGSQSV [NFKB2_Y868_A867V] | 0.41 | 0.608 | 0.829 | 1.35 | 0.353 | 0.449 | 0.946 | 0.399 | 1.43 | 0.498 | 0.984 | 0.557 | 0.794
24 | 0.421 | 0.973 | 0.723 | FADTAYNYRHG [PAH_Y166_I164T] | 0.362 | 0.46 | 0.672 | 0.449 | 0.899 | 0.533 | 0.831 | 0.35 | 0.456 | 0.552 | 0.514 | 0.601 | 0.509
25 | 0.448 | 0.549 | 0.866 | AAFNRYDQERF [CDC73_Y293_YF] | 0.473 | 0.684 | 0.665 | 0.427 | 0.394 | 0.402 | 0.856 | 0.398 | 0.469 | 0.463 | 0.397 | 0.504 | 0.609
26 | 5.52 | 1.62 | 1.06 | FLRTGYSIPFG [TGM1_Y370_V372I_YF] | 0.471 | 0.775 | 0.844 | 0.44 | 0.486 | 0.538 | 0.934 | 0.753 | 0.473 | 0.409 | 0.423 | 0.769 | 0.863
27 | 0.553 | 0.851 | 1.02 | KRAIGYFSATS [FAM120A_Y327_YF] | 0.426 | 0.362 | 0.543 | 0.364 | 0.381 | 0.345 | 0.612 | 0.362 | 0.382 | 0.327 | 0.492 | 0.467 | 0.612
28 | 0.42 | 0.76 | 0.893 | QMQAAYQKAVA [HBD_Y131_V134A] | 0.292 | 0.451 | 0.576 | 0.307 | 0.652 | 0.583 | 0.798 | 0.368 | 0.47 | 0.405 | 0.449 | 0.508 | 0.635
29 | 0.606 | 0.765 | 0.875 | YPPTHYIRRMP [SLC4A11_Y820_V824M] | 0.412 | 0.484 | 0.717 | 0.381 | 0.451 | 0.455 | 0.597 | 0.447 | 0.397 | 0.59 | 0.339 | 0.493 | 0.4
